The source of these data is patent publication US20160200782A1 (MOERAE MATRIX, published 2016).

Common to all, as to assay: cell-based or functional assay
The target of one experiment is T1, PKG1β(h) (human, UniProt Q13976-2 1-686).
T1 sequence (looked up): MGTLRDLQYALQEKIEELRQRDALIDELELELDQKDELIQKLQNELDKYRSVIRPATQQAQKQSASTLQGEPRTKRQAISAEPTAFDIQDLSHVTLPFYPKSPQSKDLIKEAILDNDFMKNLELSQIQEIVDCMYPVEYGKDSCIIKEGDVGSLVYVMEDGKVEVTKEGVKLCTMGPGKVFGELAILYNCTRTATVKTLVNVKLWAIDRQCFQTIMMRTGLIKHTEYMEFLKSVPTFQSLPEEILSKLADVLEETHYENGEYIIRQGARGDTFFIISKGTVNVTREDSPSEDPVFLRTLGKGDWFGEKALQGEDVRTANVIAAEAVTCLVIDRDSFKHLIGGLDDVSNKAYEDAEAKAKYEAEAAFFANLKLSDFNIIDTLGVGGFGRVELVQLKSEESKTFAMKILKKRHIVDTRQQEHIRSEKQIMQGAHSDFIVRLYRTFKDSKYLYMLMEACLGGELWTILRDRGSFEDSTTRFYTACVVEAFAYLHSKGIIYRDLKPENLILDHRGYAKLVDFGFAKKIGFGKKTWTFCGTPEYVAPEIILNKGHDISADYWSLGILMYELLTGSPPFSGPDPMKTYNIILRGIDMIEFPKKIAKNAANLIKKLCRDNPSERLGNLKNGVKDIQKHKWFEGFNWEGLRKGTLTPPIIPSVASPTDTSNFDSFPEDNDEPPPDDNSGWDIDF

For a further experiment, the target named is LOK(h) (human, UniProt O94804 1-348, limits assumed).
The next experiment deals with T2, IKKβ(h) (human, UniProt O14920 1-756, limits assumed).
T2 sequence (looked up): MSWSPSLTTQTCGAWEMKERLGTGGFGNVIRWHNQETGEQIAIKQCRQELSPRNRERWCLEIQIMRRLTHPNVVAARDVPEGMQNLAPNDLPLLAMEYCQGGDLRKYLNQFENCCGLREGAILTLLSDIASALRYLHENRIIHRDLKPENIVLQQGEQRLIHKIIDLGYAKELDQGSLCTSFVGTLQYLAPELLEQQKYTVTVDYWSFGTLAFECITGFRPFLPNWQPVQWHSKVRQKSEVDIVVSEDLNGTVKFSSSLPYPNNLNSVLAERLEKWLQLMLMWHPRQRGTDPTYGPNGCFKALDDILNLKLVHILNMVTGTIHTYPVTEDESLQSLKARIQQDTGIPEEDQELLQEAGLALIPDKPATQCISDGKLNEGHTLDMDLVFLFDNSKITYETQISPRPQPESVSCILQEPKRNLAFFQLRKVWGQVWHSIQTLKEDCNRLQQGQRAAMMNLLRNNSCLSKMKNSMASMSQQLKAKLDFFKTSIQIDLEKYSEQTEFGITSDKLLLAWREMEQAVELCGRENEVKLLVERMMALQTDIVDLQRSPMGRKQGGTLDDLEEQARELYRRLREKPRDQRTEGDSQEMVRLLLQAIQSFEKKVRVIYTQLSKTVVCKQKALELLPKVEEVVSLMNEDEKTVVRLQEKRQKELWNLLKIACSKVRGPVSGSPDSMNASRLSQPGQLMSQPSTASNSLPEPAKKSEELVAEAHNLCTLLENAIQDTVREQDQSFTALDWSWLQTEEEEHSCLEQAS

The target in another experiment is T3, DDR2(h) (human, UniProt Q16832 422-855, limits assumed).
T3 sequence (looked up): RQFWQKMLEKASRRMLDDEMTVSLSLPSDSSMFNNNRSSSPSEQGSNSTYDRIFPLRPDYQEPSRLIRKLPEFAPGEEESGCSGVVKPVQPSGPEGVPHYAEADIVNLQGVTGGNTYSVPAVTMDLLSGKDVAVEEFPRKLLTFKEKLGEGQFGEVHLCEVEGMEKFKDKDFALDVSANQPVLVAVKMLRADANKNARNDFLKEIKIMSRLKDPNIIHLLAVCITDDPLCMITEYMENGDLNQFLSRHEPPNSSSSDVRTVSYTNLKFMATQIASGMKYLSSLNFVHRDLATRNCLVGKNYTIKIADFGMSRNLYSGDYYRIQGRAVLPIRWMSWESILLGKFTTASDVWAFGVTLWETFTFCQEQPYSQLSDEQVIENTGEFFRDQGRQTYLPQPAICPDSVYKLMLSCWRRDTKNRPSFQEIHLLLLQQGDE

The target of another experiment is T4, LKB1(h) (human, UniProt Q15831 1-433, limits assumed).
T4 sequence (looked up): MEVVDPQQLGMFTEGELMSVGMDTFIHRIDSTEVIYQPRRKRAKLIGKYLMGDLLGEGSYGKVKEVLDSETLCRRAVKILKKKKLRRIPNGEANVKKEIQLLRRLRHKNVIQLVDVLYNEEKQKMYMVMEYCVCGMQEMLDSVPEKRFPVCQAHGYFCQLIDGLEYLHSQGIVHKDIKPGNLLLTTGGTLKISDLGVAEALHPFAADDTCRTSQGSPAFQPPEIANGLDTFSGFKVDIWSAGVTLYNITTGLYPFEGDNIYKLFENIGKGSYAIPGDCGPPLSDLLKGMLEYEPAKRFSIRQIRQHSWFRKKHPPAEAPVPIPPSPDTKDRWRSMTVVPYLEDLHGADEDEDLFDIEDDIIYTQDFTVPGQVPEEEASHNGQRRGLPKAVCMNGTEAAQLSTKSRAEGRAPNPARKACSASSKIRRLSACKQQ

The next experiment concerns the target BTK(R28H)(h) (human, UniProt Q06187 1-659).
Another experiment concerns the target T5, MRCKβ(h) (human, UniProt Q9Y5S2 1-473, limits assumed).
T5 sequence (looked up): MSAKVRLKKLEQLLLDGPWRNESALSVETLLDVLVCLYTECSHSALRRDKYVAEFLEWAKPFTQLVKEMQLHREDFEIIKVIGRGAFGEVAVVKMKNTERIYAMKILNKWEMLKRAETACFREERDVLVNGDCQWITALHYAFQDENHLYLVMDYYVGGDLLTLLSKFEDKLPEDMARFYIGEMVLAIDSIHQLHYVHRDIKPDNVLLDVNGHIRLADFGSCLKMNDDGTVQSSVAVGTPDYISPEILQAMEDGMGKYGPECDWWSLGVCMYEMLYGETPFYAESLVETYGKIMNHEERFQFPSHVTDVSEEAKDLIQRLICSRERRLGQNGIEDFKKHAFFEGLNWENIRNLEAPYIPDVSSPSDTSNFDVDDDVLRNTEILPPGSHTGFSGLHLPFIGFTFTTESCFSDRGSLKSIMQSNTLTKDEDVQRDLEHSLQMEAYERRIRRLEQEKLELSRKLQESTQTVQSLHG
Note: test concentration or dose not given here.

LOK(h), sequence (O94804 1-348 limits assumed): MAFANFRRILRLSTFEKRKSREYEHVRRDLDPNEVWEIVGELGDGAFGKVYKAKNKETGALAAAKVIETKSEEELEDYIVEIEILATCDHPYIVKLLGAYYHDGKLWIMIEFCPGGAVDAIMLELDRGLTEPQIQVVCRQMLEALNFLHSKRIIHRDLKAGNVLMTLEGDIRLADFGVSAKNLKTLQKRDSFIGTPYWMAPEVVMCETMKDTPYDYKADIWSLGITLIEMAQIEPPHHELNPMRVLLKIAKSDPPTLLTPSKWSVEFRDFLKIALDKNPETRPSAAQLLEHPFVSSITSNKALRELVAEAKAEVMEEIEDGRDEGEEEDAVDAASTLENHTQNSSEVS
BTK(R28H)(h), sequence (Q06187 whole entry R28H): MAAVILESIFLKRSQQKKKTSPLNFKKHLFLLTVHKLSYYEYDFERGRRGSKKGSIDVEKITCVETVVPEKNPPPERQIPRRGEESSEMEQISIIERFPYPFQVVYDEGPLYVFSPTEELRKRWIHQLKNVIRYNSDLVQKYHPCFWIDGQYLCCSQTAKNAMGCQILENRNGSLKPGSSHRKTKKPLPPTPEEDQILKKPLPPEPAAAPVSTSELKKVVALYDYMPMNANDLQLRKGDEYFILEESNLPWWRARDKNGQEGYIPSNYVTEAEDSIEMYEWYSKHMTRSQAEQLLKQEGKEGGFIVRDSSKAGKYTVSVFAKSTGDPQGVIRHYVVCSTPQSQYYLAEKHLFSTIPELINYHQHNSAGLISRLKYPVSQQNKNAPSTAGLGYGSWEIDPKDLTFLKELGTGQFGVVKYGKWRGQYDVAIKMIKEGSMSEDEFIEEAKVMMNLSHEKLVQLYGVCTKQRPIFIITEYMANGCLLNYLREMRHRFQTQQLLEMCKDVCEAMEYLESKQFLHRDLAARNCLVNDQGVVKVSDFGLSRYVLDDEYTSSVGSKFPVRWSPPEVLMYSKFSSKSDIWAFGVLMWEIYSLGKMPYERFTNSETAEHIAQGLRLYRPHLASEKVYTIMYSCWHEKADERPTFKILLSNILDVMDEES

Consider KAFAKLAARLYRKALARQLGVAA [MMI-0400], for which the “% activity” value with PKG1β(h) came to 53%; in the experiment with LOK(h), 18%; with IKKβ(h) it was 84%; with DDR2(h) it was 95%; in the experiment with LKB1(h), 89%; in the experiment with BTK(R28H)(h), 24%. The “% activity” value with MRCKβ(h) was 71%.

Consider FAKLAARLYRKALARQLGVAA [MMI-0300], for which the “% activity” value turned out to be 50% with PKG1β(h); 37% with LOK(h); 84% with IKKβ(h); 94% with DDR2(h); 101% in the experiment with LKB1(h); 74% with BTK(R28H)(h). In the experiment with MRCKβ(h), the “% activity” value was determined as 83%.
